Target: proteasomal core particle (WT) (yeast (endogenous)) (UniProt P21243)
Assay: stimulation of CP peptidase activity (suc-LLVY-AMC) by titrated base; base titrated against 2 nM CP, preincubated 15 min at 30 °C; 5 μM suc-LLVY-AMC; initial rates fitted to a hyperbola (Michaelis–Menten); surrogate readout for base–CP interaction

base subcomplex purified from nas6Δ cells (WT Rpt3), P38764 1-993; P32565 1-945; O13563 1-156; P33299 1-467; P40327 1-437; P33298 1-428; P53549 1-437; P33297 1-434; Q01939 1-405
Kd: 36 nM

base subcomplex purified from nas6Δ rpt3-Δ3 cells, P38764 1-993; P32565 1-945; O13563 1-156; P33299 1-467; P40327 1-437; P33298 1-428; P53549 1-437; P33297 1-434; Q01939 1-405
Kd: 145 nM

— article PMC9943895
